Patent US20200317768A1 (published 2020)

T1: cynomolgus monkey FcγRIIa1 extracellular domain with C-terminal His-tag (cynomolgus monkey)
T1 construct: Expressed in FreeStyle 293 cells and purified; also called cyno FcγRIIa1; cynoFcgRIIa1; not shown: C-terminal His-tag
T1 chain: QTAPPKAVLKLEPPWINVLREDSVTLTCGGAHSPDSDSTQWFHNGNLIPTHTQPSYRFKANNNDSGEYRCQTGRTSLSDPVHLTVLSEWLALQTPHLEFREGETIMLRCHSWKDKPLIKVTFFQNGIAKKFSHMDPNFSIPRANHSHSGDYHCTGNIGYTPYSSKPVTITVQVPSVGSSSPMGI

T2: cynomolgus monkey FcγRIIa2 extracellular domain with C-terminal His-tag (cynomolgus monkey)
T2 construct: Expressed in FreeStyle 293 cells and purified; also called cyno FcγRIIa2; cynoFcgRIIa2; not shown: C-terminal His-tag
T2 chain: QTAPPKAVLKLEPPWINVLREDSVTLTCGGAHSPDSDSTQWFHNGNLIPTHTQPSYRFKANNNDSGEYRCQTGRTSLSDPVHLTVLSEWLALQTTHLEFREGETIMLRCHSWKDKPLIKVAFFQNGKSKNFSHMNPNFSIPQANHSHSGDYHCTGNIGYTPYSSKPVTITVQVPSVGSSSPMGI

T3: cynomolgus monkey FcγRIIa3 extracellular domain with C-terminal His-tag (cynomolgus monkey)
T3 construct: Expressed in FreeStyle 293 cells and purified; also called cyno FcγRIIa3; cynoFcgRIIa3; not shown: C-terminal His-tag
T3 chain: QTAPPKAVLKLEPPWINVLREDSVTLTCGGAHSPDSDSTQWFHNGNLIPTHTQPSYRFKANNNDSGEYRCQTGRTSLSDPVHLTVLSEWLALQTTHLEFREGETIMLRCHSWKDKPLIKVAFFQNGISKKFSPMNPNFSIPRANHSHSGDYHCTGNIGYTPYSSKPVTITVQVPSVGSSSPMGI

T4: cynomolgus monkey FcγRIIb extracellular domain with C-terminal His-tag (cynomolgus monkey)
T4 construct: Expressed in FreeStyle 293 cells and purified; also called cyno FcγRIIb; cynoFcγRIIb; not shown: C-terminal His-tag
T4 chain: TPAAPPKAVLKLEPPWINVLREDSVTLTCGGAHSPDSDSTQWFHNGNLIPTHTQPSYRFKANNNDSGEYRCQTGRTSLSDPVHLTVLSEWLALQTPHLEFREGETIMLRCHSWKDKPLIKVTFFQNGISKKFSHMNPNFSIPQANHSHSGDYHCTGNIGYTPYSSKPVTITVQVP

T5: human FcγRIIaH extracellular domain with C-terminal His-tag (human, UniProt P12318 34-217)
T5 construct: Expressed in FreeStyle 293 cells and purified; also called human FcγRIIa (type H); FcgRIIaH; not shown: C-terminal His-tag
T5 sequence: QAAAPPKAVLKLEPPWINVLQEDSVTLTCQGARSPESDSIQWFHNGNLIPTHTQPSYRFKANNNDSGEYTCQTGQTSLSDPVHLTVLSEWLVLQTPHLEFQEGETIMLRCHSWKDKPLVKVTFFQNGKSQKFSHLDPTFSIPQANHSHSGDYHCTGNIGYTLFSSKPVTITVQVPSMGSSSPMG


Tests used:
Experiment in all cases: SPR (Biacore), antibody captured on chip, FcgR extracellular domain as analyte, 25 C
[1] = target: T1, cynomolgus monkey FcγRIIa1 …
Method: (§1) The kinetic analysis of interactions between these antibodies and FcγR was carried out using BIACORE® T200 or BIACORE® 4000 (GE Healthcare). HBS-EP+ (GE Healthcare) was used as the running buffer, and the measurement temperature was set to 25° C. A chip produced by immobilizing Protein A. Protein A/G or mouse anti-human IgG kappa light chain (BD Biosciences) onto a Series S Sensor Chip CM4 or CM5 (GE Healthcare) by the amine-coupling method was used. […] After the measurement, the antibody captured on the chip was washed off by allowing reaction with 10 mM glycine-HCl, pH1.5 and 25 mM NaOH so that the chip was regenerated and used repeatedly. The sensorgrams obtained as measurement results were analyzed by the 1:1 Langmuir binding model using the BIACORE® Evaluation Software to calculate the binding rate constant ka (L/mol/s) and dissociation rate constant kd (l/s), and the dissociation constant KD (mol/L) was calculated from these values. […] Regarding such interactions, KD values were calculated using the following 1:1 binding model described in BIACORE® T100 Software Handbook BR1006-48 Edition AE.
(§2) The resultant variants were expressed using M103202L889-SK1 as light chain and their affinity to human and cynoFcγRs were evaluated (Table 20).

[2] = target: T2, cynomolgus monkey FcγRIIa2 …
Method: as §1, §2

[3] = target: T3, cynomolgus monkey FcγRIIa3 …
Method: as §1, §2

[4] = target: T4, cynomolgus monkey FcγRIIb extracellular …
Method: as §1, §2

[5] = target: T5, human FcγRIIaH extracellular domain …
Method: as §1, §2

Kd [1]	Kd [2]	Kd [3]	Kd [4]	Kd [5]	Binder
3200 nM	5100 nM	17000 nM	1800 nM	690 nM	MS_M103205H795-SG1/M103202L889-SK1 (antibody, human IgG1, kappa, Anti-latent myostatin IgG; also called MS1032LO06-SG1) heavy: not shown light: DIVMTQSPATLSLSPGERATLSCTSSQSVYHANWLSWFQQKPGQPPKLLIYWASTLAYGVPSRFSGSGSGTDFTLTISSLQPEDAATYYCAGGYGGGRYAFGQGTKVEIKRTVAAPSVFIFPPSDEQLKSGTASVVCLLNNFYPREAKVQWKVDNALQSGNSQESVTEQDSKDSTYSLSSTLTLSKADYEKHKVYACEVTHQGLSSPVTKSFNRGEC
1400 nM	1500 nM	3900 nM	460 nM	830 nM	M103205H795-MY052 / M103202L889-SK1 (antibody, human IgG1, kappa, Fc variant of M103205H795-SG1, expressed with M103202L889-SK1 as light chain; parent of the position 396 variants) heavy: QVTLKESGPVLVKPTETLTLTCTVSGIDLSHDDISWVRQAPGKGLEWVGIISYAGSTYYASWAKGRLTISKDTSKNQVVLTMTNMDPVDTATYYCARGVPAYSHGGDLWGQGTLVTVSSASTKGPSVFPLAPSSKSTSGGTAALGCLVKDYFPEPVTVSWNSGALTSGVHTFPAVLQSSGLYSLSSVVTVPSSSLGTQTYICNVNHKPSNTKVDKKVEPKSCDKTHTCPPCPAPELLNGPSVFLFPPKPKDTLMISRTPEVTCVVVDVSEEDPEVKFNWYVDGVEVHNAKTKPREEQYNSTYRVVSVLTVLHQDWLNGKEYKCKVSNKALPAPIEKTISKAKGQPREPQVYTLPPSREEMTKNQVSLTCLVKGFYPSDIAVEWESNGQPENNYKTTPMVLDSDGSFFLYSKLTVDKSRWQQGNVFSCSVMHEALHNHYTQKSLSLSP light: DIVMTQSPATLSLSPGERATLSCTSSQSVYHANWLSWFQQKPGQPPKLLIYWASTLAYGVPSRFSGSGSGTDFTLTISSLQPEDAATYYCAGGYGGGRYAFGQGTKVEIKRTVAAPSVFIFPPSDEQLKSGTASVVCLLNNFYPREAKVQWKVDNALQSGNSQESVTEQDSKDSTYSLSSTLTLSKADYEKHKVYACEVTHQGLSSPVTKSFNRGEC
2300 nM	23000 nM	92000 nM	980 nM	1200 nM	M103205H795-MY171 / M103202L889-SK1 (antibody, human IgG1, kappa, Position 396 variant derived from MY052, expressed with M103202L889-SK1 as light chain) heavy: QVTLKESGPVLVKPTETLTLTCTVSGIDLSHDDISWVRQAPGKGLEWVGIISYAGSTYYASWAKGRLTISKDTSKNQVVLTMTNMDPVDTATYYCARGVPAYSHGGDLWGQGTLVTVSSASTKGPSVFPLAPSSKSTSGGTAALGCLVKDYFPEPVTVSWNSGALTSGVHTFPAVLQSSGLYSLSSVVTVPSSSLGTQTYICNVNHKPSNTKVDKKVEPKSCDKTHTCPPCPAPELLNGPSVFLFPPKPKDTLMISRTPEVTCVVVDVSEEDPEVKFNWYVDGVEVHNAKTKPREEQYNSTYRVVSVLTVLHQDWLNGKEYKCKVSNKALPAPIEKTISKAKGQPREPQVYTLPPSREEMTKNQVSLTCLVKGFYPSDIAVEWESNGQPENNYKTTPFVLDSDGSFFLYSKLTVDKSRWQQGNVFSCSVMHEALHNHYTQKSLSLSP light: DIVMTQSPATLSLSPGERATLSCTSSQSVYHANWLSWFQQKPGQPPKLLIYWASTLAYGVPSRFSGSGSGTDFTLTISSLQPEDAATYYCAGGYGGGRYAFGQGTKVEIKRTVAAPSVFIFPPSDEQLKSGTASVVCLLNNFYPREAKVQWKVDNALQSGNSQESVTEQDSKDSTYSLSSTLTLSKADYEKHKVYACEVTHQGLSSPVTKSFNRGEC
2300 nM	2300 nM	9900 nM	1000 nM	1200 nM	M103205H795-MY169 / M103202L889-SK1 (antibody, human IgG1, kappa, Position 396 variant derived from MY052, expressed with M103202L889-SK1 as light chain) heavy: QVTLKESGPVLVKPTETLTLTCTVSGIDLSHDDISWVRQAPGKGLEWVGIISYAGSTYYASWAKGRLTISKDTSKNQVVLTMTNMDPVDTATYYCARGVPAYSHGGDLWGQGTLVTVSSASTKGPSVFPLAPSSKSTSGGTAALGCLVKDYFPEPVTVSWNSGALTSGVHTFPAVLQSSGLYSLSSVVTVPSSSLGTQTYICNVNHKPSNTKVDKKVEPKSCDKTHTCPPCPAPELLNGPSVFLFPPKPKDTLMISRTPEVTCVVVDVSEEDPEVKFNWYVDGVEVHNAKTKPREEQYNSTYRVVSVLTVLHQDWLNGKEYKCKVSNKALPAPIEKTISKAKGQPREPQVYTLPPSREEMTKNQVSLTCLVKGFYPSDIAVEWESNGQPENNYKTTPDVLDSDGSFFLYSKLTVDKSRWQQGNVFSCSVMHEALHNHYTQKSLSLSP light: DIVMTQSPATLSLSPGERATLSCTSSQSVYHANWLSWFQQKPGQPPKLLIYWASTLAYGVPSRFSGSGSGTDFTLTISSLQPEDAATYYCAGGYGGGRYAFGQGTKVEIKRTVAAPSVFIFPPSDEQLKSGTASVVCLLNNFYPREAKVQWKVDNALQSGNSQESVTEQDSKDSTYSLSSTLTLSKADYEKHKVYACEVTHQGLSSPVTKSFNRGEC
2200 nM	2500 nM	10000 nM	1200 nM	1600 nM	M103205H795-MY168 / M103202L889-SK1 (antibody, human IgG1, kappa, Position 396 variant derived from MY052, expressed with M103202L889-SK1 as light chain) heavy: QVTLKESGPVLVKPTETLTLTCTVSGIDLSHDDISWVRQAPGKGLEWVGIISYAGSTYYASWAKGRLTISKDTSKNQVVLTMTNMDPVDTATYYCARGVPAYSHGGDLWGQGTLVTVSSASTKGPSVFPLAPSSKSTSGGTAALGCLVKDYFPEPVTVSWNSGALTSGVHTFPAVLQSSGLYSLSSVVTVPSSSLGTQTYICNVNHKPSNTKVDKKVEPKSCDKTHTCPPCPAPELLNGPSVFLFPPKPKDTLMISRTPEVTCVVVDVSEEDPEVKFNWYVDGVEVHNAKTKPREEQYNSTYRVVSVLTVLHQDWLNGKEYKCKVSNKALPAPIEKTISKAKGQPREPQVYTLPPSREEMTKNQVSLTCLVKGFYPSDIAVEWESNGQPENNYKTTPAVLDSDGSFFLYSKLTVDKSRWQQGNVFSCSVMHEALHNHYTQKSLSLSP light: DIVMTQSPATLSLSPGERATLSCTSSQSVYHANWLSWFQQKPGQPPKLLIYWASTLAYGVPSRFSGSGSGTDFTLTISSLQPEDAATYYCAGGYGGGRYAFGQGTKVEIKRTVAAPSVFIFPPSDEQLKSGTASVVCLLNNFYPREAKVQWKVDNALQSGNSQESVTEQDSKDSTYSLSSTLTLSKADYEKHKVYACEVTHQGLSSPVTKSFNRGEC
2300 nM	2400 nM	12000 nM	1200 nM	1700 nM	M103205H795-MY170 / M103202L889-SK1 (antibody, human IgG1, kappa, Position 396 variant derived from MY052, expressed with M103202L889-SK1 as light chain) heavy: QVTLKESGPVLVKPTETLTLTCTVSGIDLSHDDISWVRQAPGKGLEWVGIISYAGSTYYASWAKGRLTISKDTSKNQVVLTMTNMDPVDTATYYCARGVPAYSHGGDLWGQGTLVTVSSASTKGPSVFPLAPSSKSTSGGTAALGCLVKDYFPEPVTVSWNSGALTSGVHTFPAVLQSSGLYSLSSVVTVPSSSLGTQTYICNVNHKPSNTKVDKKVEPKSCDKTHTCPPCPAPELLNGPSVFLFPPKPKDTLMISRTPEVTCVVVDVSEEDPEVKFNWYVDGVEVHNAKTKPREEQYNSTYRVVSVLTVLHQDWLNGKEYKCKVSNKALPAPIEKTISKAKGQPREPQVYTLPPSREEMTKNQVSLTCLVKGFYPSDIAVEWESNGQPENNYKTTPEVLDSDGSFFLYSKLTVDKSRWQQGNVFSCSVMHEALHNHYTQKSLSLSP light: DIVMTQSPATLSLSPGERATLSCTSSQSVYHANWLSWFQQKPGQPPKLLIYWASTLAYGVPSRFSGSGSGTDFTLTISSLQPEDAATYYCAGGYGGGRYAFGQGTKVEIKRTVAAPSVFIFPPSDEQLKSGTASVVCLLNNFYPREAKVQWKVDNALQSGNSQESVTEQDSKDSTYSLSSTLTLSKADYEKHKVYACEVTHQGLSSPVTKSFNRGEC
